Assay [1] deals with Nogo receptor-1 (species and form not stated). Description: method not given.
The target of the next assay is T1, sNogoR344-Fc (rat, UniProt Q99M75 26-344).
T1 construct: also called Fc-sNogoR344; Ig-sNogoR344; not shown: hinge region and Fc region of rat IgG1
T1 chain: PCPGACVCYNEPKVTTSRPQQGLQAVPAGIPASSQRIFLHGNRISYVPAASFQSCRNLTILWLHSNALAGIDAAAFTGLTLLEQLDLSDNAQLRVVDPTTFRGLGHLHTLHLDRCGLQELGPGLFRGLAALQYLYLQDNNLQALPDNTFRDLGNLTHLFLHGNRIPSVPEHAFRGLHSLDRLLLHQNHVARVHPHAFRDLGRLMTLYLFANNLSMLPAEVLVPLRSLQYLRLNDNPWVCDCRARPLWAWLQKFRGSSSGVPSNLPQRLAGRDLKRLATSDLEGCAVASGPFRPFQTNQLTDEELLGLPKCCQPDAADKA
Description: SPA bead competition: inhibition of 125I-Nogo66 binding to immobilised sNogoR344-Fc.

The target of assay [2] is T2, mutant peptide Gln117Ala LDLSDNAALRVVDPTT (rat).
T2 construct: also called Gla117Ala (so in the source)
T2 peptide: LDLSDNAALRVVDPTT
Description: ELISA, peptide on MaxiSorp plate, serial dilution of 7E11. (In general: In an ELISA, binding on a coated surface is turned into a signal by an enzyme label.)

For assay [3], the target named is T3, mutant peptide Arg119His LDLSDNAQLHVVDPTT (rat).
T3 peptide: LDLSDNAQLHVVDPTT
The assay is described as above.

B1: monoclonal antibody 7E11 (antibody, V domains shown)
VH: VQLQESGAELVMPGASVKMSCKASGYTFTDYWMHWVKQRPGQGLEWIGAIDPSDSYSSYNQNFKGKATLTVDGSSSTAYMQLSSLTSEDSAVYYCARRITEAGAWFAYWGQGTTVT
VL: DVVMTQTPLSLPVSLGDQASISCRSSQSLVHSNGNTYLHWYLQKPGQSPKLLIYKVSNRFSGVPDRFSGSGSGTDFTLKISRVDAEDLGVYFCSQSTHVPFTFGGGTKLEIKR
As for B1, the Kd – broadly, a measure of binding affinity in units of concentration – in assay [1] is 100 nM. Besides, the IC50 (usually the concentration at which inhibition is half-maximal) with sNogoR344-Fc came to 400 nM. The “fold increase of EC50 against the original peptide” value in assay [2] came out at 30 fold; in assay [3], 25 fold.

The record behind these values is patent JP2007501612A (dated 2007).
